Common to all, as to details: tags: SV40 NLS, 3xFLAG N-term; nucleoplasmin NLS C-term
In data set [1] the target is nAPG07433.1-APG05840 (synthetic). As to the kind of experiment: cell_activity; HEK293FT; C>G predominant; PAM SEQ 152.
For data set [2], the target named is T1, APG30127-L32-nAPG07433.1 (synthetic).
T1 chain: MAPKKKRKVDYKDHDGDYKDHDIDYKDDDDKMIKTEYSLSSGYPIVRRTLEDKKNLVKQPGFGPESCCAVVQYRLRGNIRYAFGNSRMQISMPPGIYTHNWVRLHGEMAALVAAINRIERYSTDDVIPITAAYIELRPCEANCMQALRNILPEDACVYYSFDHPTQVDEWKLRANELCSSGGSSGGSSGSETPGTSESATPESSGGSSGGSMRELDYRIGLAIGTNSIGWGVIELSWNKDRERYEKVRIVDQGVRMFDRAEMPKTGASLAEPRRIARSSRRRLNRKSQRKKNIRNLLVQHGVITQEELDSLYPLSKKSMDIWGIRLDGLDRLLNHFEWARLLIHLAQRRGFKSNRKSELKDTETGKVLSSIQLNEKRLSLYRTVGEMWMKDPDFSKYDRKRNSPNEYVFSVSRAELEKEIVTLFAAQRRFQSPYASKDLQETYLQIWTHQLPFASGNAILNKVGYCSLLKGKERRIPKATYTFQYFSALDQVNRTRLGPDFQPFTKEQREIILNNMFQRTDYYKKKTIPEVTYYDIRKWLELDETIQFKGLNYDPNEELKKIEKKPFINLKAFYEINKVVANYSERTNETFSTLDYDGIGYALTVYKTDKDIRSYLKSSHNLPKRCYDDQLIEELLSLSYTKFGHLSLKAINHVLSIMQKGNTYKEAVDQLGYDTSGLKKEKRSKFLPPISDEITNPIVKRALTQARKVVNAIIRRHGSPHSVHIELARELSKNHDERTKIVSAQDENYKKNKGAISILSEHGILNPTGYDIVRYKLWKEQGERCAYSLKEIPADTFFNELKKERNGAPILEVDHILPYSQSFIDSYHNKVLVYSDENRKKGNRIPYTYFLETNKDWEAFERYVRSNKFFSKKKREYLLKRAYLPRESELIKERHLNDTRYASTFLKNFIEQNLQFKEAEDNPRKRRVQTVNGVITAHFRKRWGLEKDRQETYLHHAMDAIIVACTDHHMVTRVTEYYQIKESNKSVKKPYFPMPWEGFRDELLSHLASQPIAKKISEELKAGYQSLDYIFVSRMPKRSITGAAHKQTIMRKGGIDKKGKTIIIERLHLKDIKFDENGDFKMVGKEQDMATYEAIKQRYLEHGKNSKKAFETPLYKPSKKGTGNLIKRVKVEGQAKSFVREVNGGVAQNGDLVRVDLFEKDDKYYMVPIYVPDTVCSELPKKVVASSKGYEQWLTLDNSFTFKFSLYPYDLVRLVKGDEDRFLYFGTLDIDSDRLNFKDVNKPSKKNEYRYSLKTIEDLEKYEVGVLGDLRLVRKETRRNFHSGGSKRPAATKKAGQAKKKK
As to the kind of experiment: cell_activity; HEK293FT; PAM SEQ 152. The procedure:
(§1) 500 ng of plasmid comprising an expression cassette comprising a coding sequence for each fusion protein shown in Table 3 and 500 ng of plasmid comprising an expression cassette encoding an sgRNA shown in Table 4 were co-transfected into HEK293FT cells at 75-90% confluency in 24-well plates using Lipofectamine 2000 reagent (Life Technologies). Cells were then incubated at […] for 72 h. Following incubation, genomic DNA was then extracted using NucleoSpin 96 Tissue (Macherey-Nagel) following the manufacturer's protocol. The genomic region flanking the targeted genomic site was PCR amplified using the primers in Table 4 and products were purified using ZR-96 DNA Clean and Concentrator (Zymo Research) following the manufacturer's protocol. The purified PCR products were then sent for Next Generation Sequencing on Illumina MiSeq (2×250). Results were analyzed for INDEL formation or introduction of % specific cytosine mutations.
(§2) The position of each nucleotide in the target sequence was determined. “C17” indicates, for example, a cytosine at position 17 of the target sequence. The position of each nucleotide in the target sequence was determined by numbering the first nucleotide in the target sequence closest to the PAM as position 1, and the position number increases in the 3′ direction away from the PAM sequence.

Data set [3] deals with T2, APG30129-L32-nAPG07433.1 (synthetic).
T2 chain: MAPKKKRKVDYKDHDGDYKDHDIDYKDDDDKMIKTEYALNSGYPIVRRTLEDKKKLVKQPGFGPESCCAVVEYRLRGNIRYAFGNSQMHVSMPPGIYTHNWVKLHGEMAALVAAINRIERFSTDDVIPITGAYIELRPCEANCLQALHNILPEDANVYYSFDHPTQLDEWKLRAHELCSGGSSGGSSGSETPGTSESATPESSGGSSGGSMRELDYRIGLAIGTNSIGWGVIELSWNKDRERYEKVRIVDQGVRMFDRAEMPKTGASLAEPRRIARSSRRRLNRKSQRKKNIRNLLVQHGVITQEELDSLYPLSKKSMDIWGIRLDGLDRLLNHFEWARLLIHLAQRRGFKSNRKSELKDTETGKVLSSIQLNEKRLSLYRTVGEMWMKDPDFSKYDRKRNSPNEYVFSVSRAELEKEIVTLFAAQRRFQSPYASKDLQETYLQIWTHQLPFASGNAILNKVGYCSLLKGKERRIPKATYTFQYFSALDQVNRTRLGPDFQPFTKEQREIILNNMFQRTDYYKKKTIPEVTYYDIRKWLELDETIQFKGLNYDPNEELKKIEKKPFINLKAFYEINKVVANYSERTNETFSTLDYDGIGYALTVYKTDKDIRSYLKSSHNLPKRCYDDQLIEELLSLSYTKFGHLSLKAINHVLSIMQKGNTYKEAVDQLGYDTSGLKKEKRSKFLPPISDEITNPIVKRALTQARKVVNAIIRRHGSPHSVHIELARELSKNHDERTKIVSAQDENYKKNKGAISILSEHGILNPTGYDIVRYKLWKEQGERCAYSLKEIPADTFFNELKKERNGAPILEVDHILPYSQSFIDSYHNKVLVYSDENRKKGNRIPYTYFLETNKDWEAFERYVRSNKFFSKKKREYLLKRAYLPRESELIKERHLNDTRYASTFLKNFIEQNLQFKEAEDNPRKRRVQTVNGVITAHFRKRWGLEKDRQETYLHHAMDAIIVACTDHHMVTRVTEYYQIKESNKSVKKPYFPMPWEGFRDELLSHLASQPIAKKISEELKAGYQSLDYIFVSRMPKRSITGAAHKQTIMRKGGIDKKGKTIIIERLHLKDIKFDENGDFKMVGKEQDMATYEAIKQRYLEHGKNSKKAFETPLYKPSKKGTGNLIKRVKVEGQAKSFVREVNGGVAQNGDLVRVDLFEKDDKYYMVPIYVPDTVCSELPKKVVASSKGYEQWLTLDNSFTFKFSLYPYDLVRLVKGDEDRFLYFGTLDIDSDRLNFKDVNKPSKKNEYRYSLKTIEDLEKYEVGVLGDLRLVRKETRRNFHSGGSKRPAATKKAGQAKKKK
As to the kind of experiment: cell_activity; HEK293FT; PAM SEQ 152. The procedure: as §1, §2

These results are taken from patent US20240301385, “DNA MODIFYING ENZYMES AND ACTIVE FRAGMENTS AND VARIANTS THEREOF AND METHODS OF USE” (LIFEEDIT THERAPEUTICS, INC., published 2024).

B1: SGN000928 sgRNA ; SGN000928 target (ssRNA ; dsDNA)
RNA: GCUUCUACUCUUGGCUUACAACCCAGUCAUAGUUCCAUGAAAGCCAAAAGUGGCUUUGAUGUUUCUAUGAUAAGGGUUUCGGCCCGUGGCGUCGGGGAUCGCCUGCCCAUUCCGAUGGGCUUCUCCCCAUUUAUU
DNA 1: GCTTCTACTCTTGGCTTACAACCCA
DNA 2: TGGGTTGTAAGCCAAGAGTAGAAGC
Take B1: the activity in data set [1] came out at 20.9 % mutated reads.

B2: SGN000186 sgRNA ; SGN000186 target (ssRNA ; dsDNA)
RNA: GGACAGUGCGCAUCUCCCUGGUCAUAGUUCCAUUAAAGCCAAAAGUGGCUUUGAUGUUUCUAUGAUAAGGGUUUCGACCCGUGGCGUCGGGGAUCGCCUGCCCAUUGAAAUGGGCUUCUCCCCAUUUAUU
DNA 1: GGACAGTGCGCATCTCCCTG
DNA 2: CAGGGAGATGCGCACTGTCC
Turning to B2, the results for the activity in data set [2] and in data set [3] were 14.3 % mutated reads and 11.4 % mutated reads, respectively.
